Here are results for two molecules from paper PMC6160918, “Stabilization of the CD81 Large Extracellular Loop with De Novo Disulfide Bonds Improves Its Amenability for Peptide Grafting” (Pharmaceutics, 2018).

Data set [1] concerns the target T1, wild-type human CD81 large extracellular loop (human), P60033.
T1 chain: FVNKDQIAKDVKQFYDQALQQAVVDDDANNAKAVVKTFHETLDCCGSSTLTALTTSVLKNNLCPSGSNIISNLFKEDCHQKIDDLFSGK
Briefly: SEC-MALS; Superdex 200 Increase 10/300 GL, PBS with 200 mM NaCl, 0.75 mL/min, 200 µg of protein at about 2 mg/mL loaded; in-line MALS (miniDAWN TREOS II). The conditions noted are these: remark: other sources report otherwise. A general note: SEC sorts molecules by how far they enter the pores of the column.

Data set [2] deals with the molecule itself. The data set can be described thus: not stated; prescreening of mutants expressed in HEK293-6E at a 2-mL scale; how the dimer was seen is not told.

B1: wild-type human CD81 large extracellular loop, P60033 113-201 (domain or fragment)
chain: FVNKDQIAKDVKQFYDQALQQAVVDDDANNAKAVVKTFHETLDCCGSSTLTALTTSVLKNNLCPSGSNIISNLFKEDCHQKIDDLFSGK
For orientation: stoichiometry N means the number of molecules, sites or subunits per partner or assembly. In the case of B1, in data set [1], the stoichiometry N was 2.

B2: hCD81 LEL variant C10 (Val169Cys/Leu174Cys) (domain or fragment, human, UniProt P60033 113-201, looked up)
chain: FVNKDQIAKDVKQFYDQALQQAVVDDDANNAKAVVKTFHETLDCCGSSTLTALTTSCLKNNCCPSGSNIISNLFKEDCHQKIDDLFSGK
notes: human CD81, large extracellular loop, fragment Phe113-Lys201; numbering according to PDB entry 1G8Q; Excluded from further analysis because of the dimer it formed; the dimer may be a disulfide-linked one (surmise); source: HEK293-6E, transfected, 2-mL scale (prescreening)
For the molecule B2, in data set [2], the “stoichiometry N” value is 2.
